Source: PMC12418098, “A single helicase-binding domain of DnaG couples with hexameric helicase DnaB in Bacillus stearothermophilus”
Several values for one entry are separate records, joined by “and”; a condition that tells them apart may be missing. Identical values can stand only once. Values belong to the molecule of their own block, whether it stands above or below them.

Assays:
[1] = molecular target: helicase DnaB hexamer from Bacillus stearothermophilus (Bacillus stearothermophilus) (UniProt Q9X4C9); test: ITC; DnaB hexamer without ssDNA titrated by DnaG(HBD); 25°C; 25 mmol/L Tris pH 8.0, 100 mmol/L NaCl
[2] = molecular target: helicase DnaB hexamer from Bacillus stearothermophilus (Bacillus stearothermophilus) (UniProt Q9X4C9); test: ITC; DnaG(HBD) (200 μmol/L, needle) titrated into the pre-formed, gel-filtered DnaB6/dT16 complex (10 μmol/L, cell); 25°C; 25 mmol/L Tris pH 8.0, 100 mmol/L NaCl; one-set-of-sites model
[3] = molecular target: helicase-binding domain of primase DnaG from Bacillus stearothermophilus (Bacillus stearothermophilus) (UniProt Q9X4D0); test: ITC; reverse titration: pre-formed DnaB6/dT16 complex (200 μmol/L, needle) titrated into DnaG(HBD) (10 μmol/L, cell); 25°C; 25 mmol/L Tris pH 8.0, 100 mmol/L NaCl; one-set-of-sites model
DnaB helicase;DnaG(HBD) [4] = molecular target: T1, DnaB helicase;DnaG(HBD) (Bacillus stearothermophilus;Bacillus …, UniProt Q9X4C9;Q9X4D0 1-454;455-597, |); test: EMSA; DnaG(HBD) 1-15 pmol added to DnaB/dT16; 5 mM MgCl2, 2 mM ATP; EMSA: 25 mM Tris pH 8.0, 100 mM NaCl, 10% glycerol, 1 mM DTT, 5 mM MgCl2, 2 mM ATP, 4 C, native PAGE (6% in Methods, 8% in legend); ITC: 25 mM Tris pH 8.0, 100; settings: protein: recombinant;recombinant; tags: GST tag removed with PreScission (pGEX-6p-1);GST tag removed with PreScission (pGEX-6p-1); chain copies: 6;1; label: 5'-6-FAM; single strand
T1 sequence 1: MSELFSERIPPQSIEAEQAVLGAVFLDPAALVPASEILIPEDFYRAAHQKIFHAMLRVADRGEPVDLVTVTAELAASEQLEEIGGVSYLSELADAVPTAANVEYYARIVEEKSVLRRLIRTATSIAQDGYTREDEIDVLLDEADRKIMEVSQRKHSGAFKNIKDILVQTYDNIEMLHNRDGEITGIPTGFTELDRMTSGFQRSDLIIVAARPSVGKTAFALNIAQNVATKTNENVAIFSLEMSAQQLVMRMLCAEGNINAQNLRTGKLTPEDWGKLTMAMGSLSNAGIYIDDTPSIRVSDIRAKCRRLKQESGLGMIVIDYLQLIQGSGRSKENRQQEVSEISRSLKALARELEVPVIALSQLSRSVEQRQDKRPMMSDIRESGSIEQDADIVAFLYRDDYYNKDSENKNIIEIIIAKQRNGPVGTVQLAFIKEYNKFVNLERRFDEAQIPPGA
T1 sequence 2: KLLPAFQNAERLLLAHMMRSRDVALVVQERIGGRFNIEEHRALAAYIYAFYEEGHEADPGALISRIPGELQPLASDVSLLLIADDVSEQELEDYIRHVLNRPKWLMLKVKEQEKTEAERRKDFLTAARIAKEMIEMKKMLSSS

DnaB helicase;DnaG(HBD) [5] = molecular target: T1, DnaB helicase;DnaG(HBD); test: gel filtration with SDS-PAGE and native PAGE; ternary complex, single peak; ITC Kd of Table 1 (about 1 uM) is HBD binding to preformed DnaB6/dT16, a protein-protein contact, so not listed as a value; EMSA: 25 mM Tris pH 8.0, 100 mM NaCl, 10% glycerol, 1 mM DTT, 5 mM MgCl2, 2 mM ATP, 4 C, native PAGE (6% in Methods, 8% in legend); ITC: 25 mM Tris pH 8.0, 100; settings: protein: recombinant;recombinant; tags: GST tag removed with PreScission (pGEX-6p-1);GST tag removed with PreScission (pGEX-6p-1); chain copies: 6;1; label: none stated; single strand
DnaB helicase = molecular target: T2, DnaB helicase (Bacillus stearothermophilus, UniProt Q9X4C9 1-454); test: gel filtration with SDS-PAGE and SYBR Green II staining; binary complex; EMSA: 25 mM Tris pH 8.0, 100 mM NaCl, 10% glycerol, 1 mM DTT, 5 mM MgCl2, 2 mM ATP, 4 C, native PAGE (6% in Methods, 8% in legend); ITC: 25 mM Tris pH 8.0, 100; settings: protein: recombinant; tags: GST tag removed with PreScission (pGEX-6p-1); chain copies: 6; label: none stated; single strand
T2 sequence: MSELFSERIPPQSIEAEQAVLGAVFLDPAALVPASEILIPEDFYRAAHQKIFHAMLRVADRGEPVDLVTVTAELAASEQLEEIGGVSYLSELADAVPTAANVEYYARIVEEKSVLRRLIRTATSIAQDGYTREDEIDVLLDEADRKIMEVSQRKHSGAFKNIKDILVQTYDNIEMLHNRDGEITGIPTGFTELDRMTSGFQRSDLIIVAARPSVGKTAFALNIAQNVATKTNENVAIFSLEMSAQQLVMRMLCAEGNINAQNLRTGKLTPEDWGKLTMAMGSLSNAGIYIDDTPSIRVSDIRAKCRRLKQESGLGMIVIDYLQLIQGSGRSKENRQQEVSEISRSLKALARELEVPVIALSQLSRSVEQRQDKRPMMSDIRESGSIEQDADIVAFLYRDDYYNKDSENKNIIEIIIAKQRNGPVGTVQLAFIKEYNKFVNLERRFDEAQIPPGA

Molecule: TTTTTTTTTTTTTTTT (ssDNA) [dT16 (6-FAM)]
- binding result (DnaB helicase;DnaG(HBD) [4]): binds

Molecule: TTTTTTTTTTTTTTTT (ssDNA) [dT16]
- binding result (DnaB helicase;DnaG(HBD) [5]): binds
- binding result (DnaB helicase): binds

Continued, values first:

- stoichiometry N (DnaG(HBD) per DnaB hexamer) [1]: 3
- Kd [2]: 0.96 µM and 1.13 µM and 1.07 µM
- dH [2]: -22.8 kcal/mol and -22.7 kcal/mol and -22.2 kcal/mol
- stoichiometry N [2]: 1.09 and 1.02 and 0.981
Molecule: helicase-binding domain of primase DnaG from Bacillus stearothermophilus (from UniProt Q9X4D0 1-597) (domain or fragment)

- Kd [3]: 1.01 µM and 1.11 µM and 0.89 µM
- dH [3]: -11.2 kcal/mol and -9.18 kcal/mol and -9.75 kcal/mol
- stoichiometry N [3]: 0.987 and 1.08 and 1.05
B1: helicase DnaB hexamer from Bacillus stearothermophilus (enzyme)
chain: MSELFSERIPPQSIEAEQAVLGAVFLDPAALVPASEILIPEDFYRAAHQKIFHAMLRVADRGEPVDLVTVTAELAASEQLEEIGGVSYLSELADAVPTAANVEYYARIVEEKSVLRRLIRTATSIAQDGYTREDEIDVLLDEADRKIMEVSQRKHSGAFKNIKDILVQTYDNIEMLHNRDGEITGIPTGFTELDRMTSGFQRSDLIIVAARPSVGKTAFALNIAQNVATKTNENVAIFSLEMSAQQLVMRMLCAEGNINAQNLRTGKLTPEDWGKLTMAMGSLSNAGIYIDDTPSIRVSDIRAKCRRLKQESGLGMIVIDYLQLIQGSGRSKENRQQEVSEISRSLKALARELEVPVIALSQLSRSVEQRQDKRPMMSDIRESGSIEQDADIVAFLYRDDYYNKDSENKNIIEIIIAKQRNGPVGTVQLAFIKEYNKFVNLERRFDEAQIPPGA
